Laboratory results published in the supplement of paper PMC9112550, “Optimization of the antimicrobial peptide Bac7 by deep mutational scanning” (BMC Biology, 2022).

Tested on: Escherichia coli TOP10
Assay: shrunken log2 fold change of peptide-encoding DNA abundance (4.5 h post-induction vs induction); higher = less antimicrobial activity (less host growth inhibition)
Conditions: time post-induction: 4.5 h; library: site-saturation at positions 5, 18, 19, 20
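Also: peptides expressed intracellularly from a pBAD plasmid library in pooled LB shake-flask culture, induced with 0.3% L-arabinose, DNA abundance read by NGS, three biological replicates, DESeq2 with apeglm shrinkage.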

## RRIRNRPPRLPRPRPRPLMQPRP
  shrunken log2 fold change: -0.0301

## RRIRARPPRLPRPRPRPPETPRP
  shrunken log2 fold change: 0.55

## RRIRLRPPRLPRPRPRPWINPRP
  shrunken log2 fold change: -0.43

## RRIRGRPPRLPRPRPRPFEFPRP
  shrunken log2 fold change: -0.157

## RRIRQRPPRLPRPRPRPYITPRP
  shrunken log2 fold change: -0.0324

## RRIRNRPPRLPRPRPRPFVLPRP
  shrunken log2 fold change: -0.451

## RRIRYRPPRLPRPRPRPAFYPRP
  shrunken log2 fold change: -0.513

## RRIRQRPPRLPRPRPRPTEFPRP
  shrunken log2 fold change: -0.113

## RRIRSRPPRLPRPRPRPSTGPRP
  shrunken log2 fold change: -0.417

## RRIRERPPRLPRPRPRPICCPRP
  shrunken log2 fold change: -0.133

## RRIRCRPPRLPRPRPRPQEPPRP
  shrunken log2 fold change: 0.359

## RRIRHRPPRLPRPRPRPSEFPRP
  shrunken log2 fold change: -0.477

## RRIRERPPRLPRPRPRPQWQPRP
  shrunken log2 fold change: -0.109

## RRIRDRPPRLPRPRPRPRRVPRP
  shrunken log2 fold change: 0.427

## RRIRVRPPRLPRPRPRPALWPRP
  shrunken log2 fold change: 0.57

## RRIRSRPPRLPRPRPRPEFFPRP
  shrunken log2 fold change: -0.0464

## RRIRWRPPRLPRPRPRPAEAPRP
  shrunken log2 fold change: 0.0865

## RRIRHRPPRLPRPRPRPYYTPRP
  shrunken log2 fold change: -0.0493

## RRIRIRPPRLPRPRPRPLSYPRP
  shrunken log2 fold change: -0.528

## RRIRHRPPRLPRPRPRPYAYPRP
  shrunken log2 fold change: -0.596

## RRIRKRPPRLPRPRPRPMHAPRP
  shrunken log2 fold change: 0.00395

## RRIRSRPPRLPRPRPRPIGIPRP
  shrunken log2 fold change: -0.67

## RRIRYRPPRLPRPRPRPHVFPRP
  shrunken log2 fold change: -0.0822

## RRIRTRPPRLPRPRPRPGGFPRP
  shrunken log2 fold change: 0.413

## RRIRDRPPRLPRPRPRPINWPRP
  shrunken log2 fold change: -0.044

## RRIRGRPPRLPRPRPRPHYQPRP
  shrunken log2 fold change: -0.15

## RRIRRRPPRLPRPRPRPFVMPRP
  shrunken log2 fold change: -0.0623

## RRIRWRPPRLPRPRPRPSMIPRP
  shrunken log2 fold change: -0.12

## RRIRVRPPRLPRPRPRPQINPRP
  shrunken log2 fold change: -0.0064

## RRIRTRPPRLPRPRPRPCFCPRP
  shrunken log2 fold change: -0.259

## RRIRCRPPRLPRPRPRPFQVPRP
  shrunken log2 fold change: -0.335

## RRIRKRPPRLPRPRPRPQVHPRP
  shrunken log2 fold change: -0.161

## RRIRVRPPRLPRPRPRPGCKPRP
  shrunken log2 fold change: 0.32

## RRIRMRPPRLPRPRPRPGESPRP
  shrunken log2 fold change: 1.29

## RRIRPRPPRLPRPRPRPDAQPRP
  shrunken log2 fold change: 0.271

## RRIRSRPPRLPRPRPRPHQRPRP
  shrunken log2 fold change: -0.249

## RRIRERPPRLPRPRPRPIDKPRP
  shrunken log2 fold change: -0.321

## RRIRERPPRLPRPRPRPDYKPRP
  shrunken log2 fold change: -0.31

## RRIRNRPPRLPRPRPRPHWNPRP
  shrunken log2 fold change: -1.01

## RRIRGRPPRLPRPRPRPEHDPRP
  shrunken log2 fold change: 0.835

## RRIRHRPPRLPRPRPRPPMNPRP
  shrunken log2 fold change: -0.543

## RRIRARPPRLPRPRPRPNHFPRP
  shrunken log2 fold change: -0.0665

## RRIRFRPPRLPRPRPRPYCHPRP
  shrunken log2 fold change: -0.687

## RRIRDRPPRLPRPRPRPGLWPRP
  shrunken log2 fold change: 1.37

## RRIRMRPPRLPRPRPRPVCNPRP
  shrunken log2 fold change: -0.314

## RRIRYRPPRLPRPRPRPPQVPRP
  shrunken log2 fold change: -0.0496

## RRIRQRPPRLPRPRPRPCAMPRP
  shrunken log2 fold change: -0.0872

## RRIRPRPPRLPRPRPRPLWLPRP
  shrunken log2 fold change: -0.0275

## RRIRGRPPRLPRPRPRPWDSPRP
  shrunken log2 fold change: -0.479

## RRIRTRPPRLPRPRPRPQMAPRP
  shrunken log2 fold change: -0.177

## RRIRCRPPRLPRPRPRPTFKPRP
  shrunken log2 fold change: -0.148

## RRIRLRPPRLPRPRPRPKHKPRP
  shrunken log2 fold change: -0.103

## RRIRPRPPRLPRPRPRPFLVPRP
  shrunken log2 fold change: -0.0765

## RRIRTRPPRLPRPRPRPQQDPRP
  shrunken log2 fold change: -0.18

## RRIRIRPPRLPRPRPRPDNYPRP
  shrunken log2 fold change: -0.199

## RRIRGRPPRLPRPRPRPMFYPRP
  shrunken log2 fold change: 1.07

## RRIRVRPPRLPRPRPRPATTPRP
  shrunken log2 fold change: 0.0611

## RRIRNRPPRLPRPRPRPRCSPRP
  shrunken log2 fold change: 0.019

## RRIRDRPPRLPRPRPRPNEHPRP
  shrunken log2 fold change: -0.0707

## RRIRIRPPRLPRPRPRPVCVPRP
  shrunken log2 fold change: -0.279

## RRIRCRPPRLPRPRPRPIWGPRP
  shrunken log2 fold change: 0.25

## RRIRYRPPRLPRPRPRPPVVPRP
  shrunken log2 fold change: 0.00632

## RRIRLRPPRLPRPRPRPHIWPRP
  shrunken log2 fold change: -0.278

## RRIRFRPPRLPRPRPRPCSCPRP
  shrunken log2 fold change: -0.879

## RRIRHRPPRLPRPRPRPYVIPRP
  shrunken log2 fold change: -0.00839

## RRIRWRPPRLPRPRPRPAMVPRP
  shrunken log2 fold change: 0.483

## RRIRNRPPRLPRPRPRPEPHPRP
  shrunken log2 fold change: 0.131

## RRIRDRPPRLPRPRPRPAKAPRP
  shrunken log2 fold change: 0.0972

## RRIRNRPPRLPRPRPRPQVGPRP
  shrunken log2 fold change: 0.00312

## RRIRNRPPRLPRPRPRPTKIPRP
  shrunken log2 fold change: -0.245

## RRIRNRPPRLPRPRPRPFDPPRP
  shrunken log2 fold change: -0.805

## RRIRRRPPRLPRPRPRPAIGPRP
  shrunken log2 fold change: 0.136

## RRIRERPPRLPRPRPRPTEDPRP
  shrunken log2 fold change: -0.317

## RRIRTRPPRLPRPRPRPQRVPRP
  shrunken log2 fold change: -0.0793

## RRIRPRPPRLPRPRPRPTPFPRP
  shrunken log2 fold change: 0.269

## RRIRIRPPRLPRPRPRPVSMPRP
  shrunken log2 fold change: 0.0888

## RRIRWRPPRLPRPRPRPWTYPRP
  shrunken log2 fold change: -0.0122

## RRIRIRPPRLPRPRPRPICYPRP
  shrunken log2 fold change: -0.325

## RRIRHRPPRLPRPRPRPFASPRP
  shrunken log2 fold change: -0.182

## RRIRKRPPRLPRPRPRPCEMPRP
  shrunken log2 fold change: 0.0303

## RRIRSRPPRLPRPRPRPLIFPRP
  shrunken log2 fold change: -0.403

## RRIRDRPPRLPRPRPRPKDQPRP
  shrunken log2 fold change: -0.111

## RRIRLRPPRLPRPRPRPPLQPRP
  shrunken log2 fold change: 0.67

## RRIRIRPPRLPRPRPRPCVKPRP
  shrunken log2 fold change: -0.828

## RRIRNRPPRLPRPRPRPRRTPRP
  shrunken log2 fold change: 0.135

## RRIRFRPPRLPRPRPRPGQNPRP
  shrunken log2 fold change: 0.0186

## RRIRARPPRLPRPRPRPMTNPRP
  shrunken log2 fold change: 0.178

## RRIRGRPPRLPRPRPRPICEPRP
  shrunken log2 fold change: 0.396

## RRIRIRPPRLPRPRPRPKSVPRP
  shrunken log2 fold change: -0.0925

## RRIRYRPPRLPRPRPRPSWPPRP
  shrunken log2 fold change: -0.613

## RRIRNRPPRLPRPRPRPHMKPRP
  shrunken log2 fold change: -0.243
